From patent publication US11278600B2, “Human alpha-galactosidase variants” (Codexis, Inc., priority 2014, dated 2022)

B1: 116 (protein)
chain: LDNGLARTPTMGWLHWERFMCNLDCQEEPDSCISEKLFMEMAELMVSEGWKDAGYEYLCIDDCWMAPQRDSEGRLQADPQRFPHGIRQLANYVHSKGLKLGIYADVGNKTCAGFPGSFGYYDIDAQTFADWGVDLLKFDGCYCDSLENLADGYKHMSLALNRTGRSIVYSCEWPLYMWPFQKPNYTEIRQYCNHWRNFADIDDSWKSIKSILDWTSFNQERIVDVAGPGGWNDPDMLVIGNFGLSWNQQVTQMALWAIMAAPLFMSNDLRHISPQAKALLQDKDVIAINQDPLGKQGYQLRQGDNFEVWERPLSGLAWAVAMINRQEIGGPRSYTIAVASLGKGVACNPACFITQLLPVKRKLGFYEWTSRLRSHINPTGTVLLQLENTMQMSKDLLE
modifications: Synthetic Polypeptide sequence of Variant No. 116 of mature Human GLA
B2: 121 (protein)
chain: LDNGLARTPTMGWLHWERFMCNLDCQEEPDSCISEKLFMEMAERMVSEGWKDAGYEYLCIDDCWMAPQRDSEGRLQADPQRFPHGIRQLANYVHSKGLKLGIYADVGNKTCAGFPGSFGYYDIDAQTFADWGVDLLKFDGCYCDSLENLADGYKHMSLALNRTGRSIVYSCEWPLYMWPFQKPNYTEIRQYCNHWRNFADIDDSWKSIKSILDWTSFNQERIVDVAGPGGWNDPDMLVIGNFGLSWNQQVTQMALWAIMAAPLFMSNDLRHISPQAKALLQDKDVIAINQDPLGKQGYQLRQGDNFEVWERPLSGLAWAVAMINRQEIGGPRSYTIAVASLGKGVACNPACFITQLLPVKRKLGFYEWTSRLRSHINPTGTVLFQLENTMQMSKDLLL
modifications: Synthetic Polypeptide sequence of Variant No. 121 of mature Human GLA
B3: 122 (protein)
chain: LDNGLARTPTMGWLHWERFMCNLDCQEEPDSCISEKLFMEMAETMVSEGWKDAGYEYLCIDDCWMAPQRDSEGRLQADPQRFPHGIRQLANYVHSKGLKLGIYADVGNKTCAGFPGSFGYYDIDAQTFADWGVDLLKFDGCYCDSLENLADGYKHMSLALNRTGRSIVYSCEWPLYMWPFQKPNYTEIRQYCNHWRNFADIDDSWKSIKSILDWTSFNQERIVDVAGPGGWNDPDMLVIGNFGLSWNQQVTQMALWAIMAAPLFMSNDLRHISPQAKALLQDKDVIAINQDPLGKQGYQLRQGDNFEVWERPLSGLAWAVAMINRQEIGGPRSYTIAVASLGKGVACNPACFITQLLPVKRKLGFYEWTSRLRSHINPTGTVLLQLENTMQMSKDLLL
modifications: Synthetic Polypeptide sequence of Variant No. 122 of mature Human GLA
B4: 120 (protein)
chain: LDNGLARTPTMGWLHWERFMCNLDCQEEPDSCISEKLFMEMAELMVSEGWKDAGYEYLCIDDCWMAPQRDSEGRLQADPQRFPHGIRQLANYVHSKGLKLGIYADVGNKTCAGFPGSFGYYDIDAQTFADWGVDLLKFDGCYCDSLENLADGYKHMSLALNRTGRSIVYSCEWPLYMWPFQKPNYTEIRQYCNHWRNFADIDDSWKSIKSILDWTSFNQERIVDVAGPGGWNDPDMLVIGNFGLSWNQQVTQMALWAIMAAPLFMSNDLRHISPQAKALLQDKDVIAINQDPLGKQGYQLRQGDNFEVWERPLSGLAWAVAMINRQEIGGPRSYTIAVASLGKGVACNPACFITQLLPVKRKLGFYEWTSRLRSHINPTGTVLLQLENTMQMSKDLLR
modifications: Synthetic Polypeptide sequence of Variant No. 120 of mature Human GLA
B5: 119 (protein)
chain: LDNGLARTPTMGWLHWERFMCNLDCQEEPDSCISEKLFMEMAELMVSEGWKDAGYEYLCIDDCWMAPQRDSEGRLQADPQRFPHGIRQLANYVHSKGLKLGIYADVGNKTCAGFPGSFGYYDIDAQTFADWGVDLLKFDGCYCDSLENLADGYKHMSLALNRTGRSIVYSCEWPLYMWPFQKPNYTEIRQYCNHWRNFADIDDSWKSIKSILDWTSFNQERIVDVAGPGGWNDPDMLVIGNFGLSWNQQVTQMALWAIMAAPLFMSNDLRHISPQAKALLQDKDVIAINQDPLGKQGYQLRQGDNFEVWERPLSGLAWAVAMINRQEIGGPRSYTIAVASLGKGVACNPACFITQLLPVKRKLGFYEWTSRLRSHINPTGTVLLQLENTMQMSKDLLQ
modifications: Synthetic Polypeptide sequence of Variant No. 119 of mature Human GLA
B6: 35 (protein)
chain: LDNGLARTPTMGWLHWERFMCNLDCQEEPDSCISEKLFMEMAELMVSEGWKDAGYEYLCIDDCWMAPQRDSEGRLQADPQRFPHGIRQLANYVHSKGLKLGIYADVGNKTCAGFPGSFGYYDIDAQTFADWGVDLLKFDGCYCDSLENLADGYKHMSLALNRTGRSIVYSCEWPLYMWPFQKPNYTEIRQYCNHWRNFADIDDSWKSIKSILDWTSFNQERIVDVAGPGGWNDPDMLVIGNFGLSWNQQVTQMALWAIMAAPLFMSNDLRHISPQAKALLQDKDVIAINQDPLGKQGYQLRQGDNFEVWERPLSGLAWAVAMINRQEIGGPRSYTIAVSSLGKGVACNPACFITQLLPVKRKLGFYEWTSRLRSHINPTGTVLLQLENTMQMSKDLLL
modifications: Synthetic Polypeptide sequence of Variant No. 35 of mature Human GLA
B7: 117 (protein)
chain: LDNGLARTPTMGWLHWERFMCNLDCQEEPDSCISEKLFMEMAELMVSEGWKDAGYEYLCIDDCWMAPQRDSEGRLQADPQRFPHGIRQLANYVHSKGLKLGIYADVGNKTCAGFPGSFGYYDIDAQTFADWGVDLLKFDGCYCDSLENLADGYKHMSLALNRTGRSIVYSCEWPLYMWPFQKPNYTEIRQYCNHWRNFADIDDSWKSIKSILDWTSFNQERIVDVAGPGGWNDPDMLVIGNFGLSWNQQVTQMALWAIMAAPLFMSNDLRHISPQAKALLQDKDVIAINQDPLGKQGYQLRQGDNFEVWERPLSGLAWAVAMINRQEIGGPRSYTIAVASLGKGVACNPACFITQLLPVKRKLGFYEWTSRLRSHINPTGTVLLQLENTMQMSKDLLG
modifications: Synthetic Polypeptide sequence of Variant No. 117 of mature Human GLA
B8: 118 (protein)
chain: LDNGLARTPTMGWLHWERFMCNLDCQEEPDSCISEKLFMEMAELMVSEGWKDAGYEYLCIDDCWMAPQRDSEGRLQADPQRFPHGIRQLANYVHSKGLKLGIYADVGNKTCAGFPGSFGYYDIDAQTFADWGVDLLKFDGCYCDSLENLADGYKHMSLALNRTGRSIVYSCEWPLYMWPFQKPNYTEIRQYCNHWRNFADIDDSWKSIKSILDWTSFNQERIVDVAGPGGWNDPDMLVIGNFGLSWNQQVTQMALWAIMAAPLFMSNDLRHISPQAKALLQDKDVIAINQDPLGKQGYQLRQGDNFEVWERPLSGLAWAVAMINRQEIGGPRSYTIAVASLGKGVACNPACFITQLLPVKRKLGFYEWTSRLRSHINPTGTVLLQLENTMQMSKDLLN
modifications: Synthetic Polypeptide sequence of Variant No. 118 of mature Human GLA

Key:
Type in all cases: biochemical
[1] = HTP-analysis of yeast culture supernatants, no challenge (MUGal hydrolysis); settings: activity of the variant/activity of WT GLA (SEQ ID NO: 5), yeast supernatant
Procedure, shortened: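 Activity read as 4-methylumbelliferyl α-D-galactopyranoside hydrolysis: fluorescence (355/448 nm) after sodium carbonate stop, following 30-180 min at 37° C with 2 mM MUGal stock at pH 4.6–4.8. Enzyme source is unchallenged culture supernatant of INVSc1 yeast expressing GLA variants, grown 66-84 h at 30° C.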

[2] = HTP-analysis of supernatants pretreated with acid (MUGal hydrolysis); settings: challenge at pH 4.2; activity of the variant/activity of WT GLA (SEQ ID NO: 5); yeast supernatant
Procedure, shortened: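 MUGal hydrolysis was tracked by fluorescence (Ex 355 nm, Em 448 nm) after a 30-180 min reaction at 37° C. in pH 4.8 McIlvaine/citrate buffer, stopped with 1 M sodium carbonate. Beforehand, yeast (INVSc1) culture supernatants carrying GLA variants were held 1-3 h at 37° C. in acidic McIlvaine buffer, pH 3.3-4.3.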

[3] = HTP-analysis of supernatants pretreated with base (MUGal hydrolysis); settings: challenge at pH 7.1; activity of the variant/activity of WT GLA (SEQ ID NO: 5); yeast supernatant
Procedure, shortened: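 GLA variants were secreted by transformed INVSc1 yeast grown 66-84 h at 30° C. Supernatants were exposed to neutral-to-basic buffers (pH 7.0-9.7) at 37° C for 1-18 h, then assayed with MUGal in acidic citrate/McIlvaine buffer, with fluorescence read after quenching.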

Row | Molecule | Relative Activity of GLA Variants After No Challenge (NC) [1] | Relative Activity of GLA Variants After Challenge at pH 4.2 [2] | Relative Activity of GLA Variants After Challenge at pH 7.1 [3]
1 | B1 | ++ (++ = >1.5 to 2.5 relative activity over WT GLA (SEQ ID NO: 5)) | ++ (++ = >1.5 to 2.5 relative activity over WT GLA (SEQ ID NO: 5)) | ++ (++ = >1.5 to 2.5 relative activity over WT GLA (SEQ ID NO: 5))
2 | B2 | + (+ = 0.5 to 1.5 relative activity over WT GLA (SEQ ID NO: 5)) | ++ (++ = >1.5 to 2.5 relative activity over WT GLA (SEQ ID NO: 5)) | ++ (++ = >1.5 to 2.5 relative activity over WT GLA (SEQ ID NO: 5))
3 | B3 | ++ (++ = >1.5 to 2.5 relative activity over WT GLA (SEQ ID NO: 5)) | ++ (++ = >1.5 to 2.5 relative activity over WT GLA (SEQ ID NO: 5)) | ++ (++ = >1.5 to 2.5 relative activity over WT GLA (SEQ ID NO: 5))
4 | B4 | ++ (++ = >1.5 to 2.5 relative activity over WT GLA (SEQ ID NO: 5)) | ++ (++ = >1.5 to 2.5 relative activity over WT GLA (SEQ ID NO: 5)) | ++ (++ = >1.5 to 2.5 relative activity over WT GLA (SEQ ID NO: 5))
5 | B5 | ++ (++ = >1.5 to 2.5 relative activity over WT GLA (SEQ ID NO: 5)) | ++ (++ = >1.5 to 2.5 relative activity over WT GLA (SEQ ID NO: 5)) | ++ (++ = >1.5 to 2.5 relative activity over WT GLA (SEQ ID NO: 5))
6 | B6 | ++ (++ = >1.5 to 2.5 relative activity over WT GLA (SEQ ID NO: 5)) | ++ (++ = >1.5 to 2.5 relative activity over WT GLA (SEQ ID NO: 5)) | ++ (++ = >1.5 to 2.5 relative activity over WT GLA (SEQ ID NO: 5))
7 | B7 | ++ (++ = >1.5 to 2.5 relative activity over WT GLA (SEQ ID NO: 5)) | ++ (++ = >1.5 to 2.5 relative activity over WT GLA (SEQ ID NO: 5)) | ++ (++ = >1.5 to 2.5 relative activity over WT GLA (SEQ ID NO: 5))
8 | B8 | ++ (++ = >1.5 to 2.5 relative activity over WT GLA (SEQ ID NO: 5)) | ++ (++ = >1.5 to 2.5 relative activity over WT GLA (SEQ ID NO: 5)) | ++ (++ = >1.5 to 2.5 relative activity over WT GLA (SEQ ID NO: 5))
